Earlier results, collected in patent US20100167984A1, “Complex between human insulin and an amphiphilic polymer and use of this complex in the preparation of a fast-acting human insulin formulation” (ADOCIA, priority 2008, published 2010).

How the values were obtained:
[1] = hexamer form, at 4° C.
[2] = due to dissociation equilibria of hexamers; Brange J. et al. 1999

## Human insulin: human insulin, assembled in the hexamer form
[1]
  stability (storage time): approximately 2 years
[2]
  slowing down of action in comparison with a fast-acting insulin analog: approximately 20 minutes
